Experimental data published in PMC9455167.

What was measured:
[1] = target: Recombinant human Src kinase (Abcam 79635) (human) (UniProt P12931); test: MST; RED-tris-NTA-labelled His-tagged Src kinase constant at 50 nM; unlabelled Na,K-ATPase 0.2 nM to 16 µM; 50 mM Tris/HCl pH 7.4, 150 mM NaCl, 10 mM MgCl2; Monolith NT.115, LED 100%, MST power 40%
[2] = target: Recombinant human Src kinase (Abcam 79635) (human) (UniProt P12931)

Kd [1]: 210 nM | reduction of Src autophosphorylation at Tyr416 in vitro (purified Na,K-ATPase, Src kinase, ATP; Western blot p-Src/Src) [2]: 70%
Substance: Na,K-ATPase purified from duck salt glands (complex)
